# Laboratory results from patent US20190040132A1 (FRED HUTCHINSON CANCER RESEARCH CENTER, published 2019).
# B1: anti-ROR1 monoclonal antibody 6D4 (antibody, V domains shown)
# VH: SGPELVKPGTSVKMSCKASGYTFTDYYMNWVKQTHGKNLEWIGRVNPSNGNTDYNQKFKGKATLTVDKSLSTAYMQLSSLTSEDSAVYYCGRLAYWGQGSLVTVSA
# VL: LTQSPASLAVSPGQRATISCKASQSVDYDGETYMNWYQQKSGQPPKLLIYAASNLESGIPARFSGSGSGTDFTLNIHPVEEEDAATYYCLQTLKNPYTFGGGTKLEIK
# notes: Mouse monoclonal antibody from a hybridoma, used as supernatant or purified; also called mAb 6D4; clone 6D4
# Target: T1, human ROR2 (human, UniProt Q01974 34-943)
# T1 construct: also called K562 expressing human ROR2
# Assay: IHC on FFPE K562 cells transduced with human ROR2
# T1 sequence (Q01974 34-943 limits assumed): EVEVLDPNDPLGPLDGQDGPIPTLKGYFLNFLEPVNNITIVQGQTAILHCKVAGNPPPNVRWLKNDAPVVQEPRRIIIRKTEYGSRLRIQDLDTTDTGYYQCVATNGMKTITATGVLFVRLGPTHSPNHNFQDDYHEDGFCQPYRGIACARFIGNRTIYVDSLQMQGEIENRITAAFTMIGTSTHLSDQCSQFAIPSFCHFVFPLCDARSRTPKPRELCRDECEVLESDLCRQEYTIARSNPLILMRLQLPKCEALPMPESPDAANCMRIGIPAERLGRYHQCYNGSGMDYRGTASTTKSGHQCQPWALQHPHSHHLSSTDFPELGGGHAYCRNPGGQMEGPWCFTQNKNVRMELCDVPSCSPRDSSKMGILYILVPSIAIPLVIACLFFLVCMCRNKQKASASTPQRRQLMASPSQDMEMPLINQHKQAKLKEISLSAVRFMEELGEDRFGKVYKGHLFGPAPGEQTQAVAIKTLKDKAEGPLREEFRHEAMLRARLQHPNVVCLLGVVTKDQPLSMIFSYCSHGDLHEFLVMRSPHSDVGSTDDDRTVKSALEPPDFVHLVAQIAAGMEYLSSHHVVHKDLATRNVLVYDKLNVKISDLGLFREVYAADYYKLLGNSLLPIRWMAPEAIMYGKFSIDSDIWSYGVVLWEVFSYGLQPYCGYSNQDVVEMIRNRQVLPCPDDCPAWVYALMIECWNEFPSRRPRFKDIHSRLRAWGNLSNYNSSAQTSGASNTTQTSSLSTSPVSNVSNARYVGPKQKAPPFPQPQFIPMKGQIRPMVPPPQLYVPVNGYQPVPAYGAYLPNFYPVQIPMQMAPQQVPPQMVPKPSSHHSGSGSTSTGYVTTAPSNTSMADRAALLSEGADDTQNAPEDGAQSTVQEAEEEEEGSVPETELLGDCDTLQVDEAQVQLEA
binder,measurement,value
B1,binding result,no binding
